In paper PMC4174437:

Biological target: Ec Hfq WT (Escherichia coli, UniProt P0A6X3 1-102)
Assay: fluorescence polarization

Chain of Ec Hfq WT (P0A6X3 whole entry): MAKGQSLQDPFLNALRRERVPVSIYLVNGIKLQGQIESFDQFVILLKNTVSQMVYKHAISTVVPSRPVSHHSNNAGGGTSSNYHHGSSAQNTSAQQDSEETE

Question: How did the Kd turn out when UUUUUU (ssRNA) [U6 (5'-fluorescein)] was run?
Answer: The Kd was 3.3 nM.
